Experimental data reported in paper PMC10927774, “Mechanistic and biophysical characterization of polymyxin resistance response regulator PmrA in Acinetobacter baumannii” (Frontiers in Microbiology, 2024).

Target: the molecule itself
Experiment: SEC; full-length PmrA incubated with BeF3- and Mg2+ (5.3 mM BeSO4, 35 mM NaF, 7 mM MgCl2) to mimic phosphorylation; 25 mM Tris pH 8.0, 150 mM NaCl, 5% glycerol

B1: Acinetobacter baumannii PmrA full length (natural protein)
chain: MTKILMIEDDFMIAESTITLLQYHQFEVEWVNNGLDGLAQLAKTKFDLILLDLGLPMMDGMQVLKQIRQRAATPVLIISARDQLQNRVDGLNLGADDYLIKPYEFDELLARIHALLRRSGVEAQLASQDQLLESGDLVLNVEQHIATFKGQRIDLSNREWAILIPLMTHPNKIFSKANLEDKLYDFDSDVTSNTIEVYVHHLRAKLGKDFIRTIRGLGYRLGQS
notes: Response regulator PmrA of A. baumannii, UniProt E2FGC2; full length, printed as residues 1–244 in the methods, while the introduction places the DBD at 129–223; Cloned in pET28a; In one SEC run it was incubated with BeF3- and Mg2+ (aspartate phosphorylation mimic); this is treated as a condition of the assay, not as another molecule; also called PmrA FL; full-length PmrA; source: E. coli BL21 …
  stoichiometry N: 2
